Data on 1 molecule can be found in patent US20190062443A1 (GALAXY BIOTECH, published 2019).

The assay has as its target DR5-KF fusion protein (human, UniProt O14763 54-183; P01834 1-107, limits assumed). As to the kind of experiment: sandwich ELISA for simultaneous binding: anti-DR4 mAb coat, DR4-hFc 0.5 µg/ml, test mAb, DR5-KF 0.5 µg/ml, HRP-anti-Flag M2. Background: ELISA stands for enzyme-linked immunosorbent assay.

Chain of DR5-KF fusion protein (O14763 other isoform, or with tags, fused parts or gaps limits assumed): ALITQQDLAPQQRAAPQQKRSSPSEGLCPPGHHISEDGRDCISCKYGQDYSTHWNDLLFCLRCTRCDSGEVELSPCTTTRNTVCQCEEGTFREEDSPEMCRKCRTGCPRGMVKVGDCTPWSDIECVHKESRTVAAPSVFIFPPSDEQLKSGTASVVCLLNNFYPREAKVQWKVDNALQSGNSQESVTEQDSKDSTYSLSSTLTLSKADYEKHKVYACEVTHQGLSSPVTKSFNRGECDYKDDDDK
Description: Each step of each ELISA assay described in this patent application was performed by room temperature incubation with the appropriate reagent for 1 hour, except the initial plate coating step was done overnight at 4° C. followed by blocking with 2% BSA for 1 hr. Between each step, plates were washed 3 times in PBS containing 0.05% Tween 20. Data points were generally in duplicate or triplicate; there was generally little variability between replicate data points.
Bound DR5-KF was detected with HRP-anti-Flag M2 (Sigma) and substrate.

B1: B-4H6/3H3-hFc** (bispecific antibody, human IgG1, kappa)
heavy: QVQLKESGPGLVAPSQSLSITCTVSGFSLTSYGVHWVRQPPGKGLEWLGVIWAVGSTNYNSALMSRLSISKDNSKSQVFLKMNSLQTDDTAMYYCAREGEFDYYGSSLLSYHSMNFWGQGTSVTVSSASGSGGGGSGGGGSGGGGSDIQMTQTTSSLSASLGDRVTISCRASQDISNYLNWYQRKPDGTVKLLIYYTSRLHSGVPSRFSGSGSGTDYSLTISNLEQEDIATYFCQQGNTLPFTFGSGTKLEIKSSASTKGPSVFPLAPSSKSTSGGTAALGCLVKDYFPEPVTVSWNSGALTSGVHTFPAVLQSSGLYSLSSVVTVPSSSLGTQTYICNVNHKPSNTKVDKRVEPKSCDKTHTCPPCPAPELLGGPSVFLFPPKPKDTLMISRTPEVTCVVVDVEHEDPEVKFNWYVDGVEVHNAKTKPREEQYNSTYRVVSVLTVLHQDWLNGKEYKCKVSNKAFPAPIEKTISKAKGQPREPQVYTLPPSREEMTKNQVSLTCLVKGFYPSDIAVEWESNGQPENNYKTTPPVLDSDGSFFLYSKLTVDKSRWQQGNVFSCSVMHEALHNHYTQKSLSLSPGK
light: EVQLQQSGPELVKPGASVKMSCKASGYTFTSYVMHWVKQKPGQGLEWIGYIIPYNDGTKYNEKFKGKATLTSDKSSSTAYMELSRLTSEDSAVYYCARGGINYDYLYYFDYWGQGTTLTVSSASGSGGGGSGGGGSGGGGSDVVMTQIPLSLPVSLGDQASISCRSSQSLVHSNGNTYLHWYLQKPGQSPKLLIYKVSNRFSGVPDRFSGSGSGTDFTLKISRVEAEDLGVYFCSQSTHVPHTFGGGTKLEIKRTVAAPSVFIFPPSDEQLKSGTASVVCLLNNFYPREAKVQWKVDNALQSGNSQESVTEQDSKDSTYSLSSTLTLSKADYEKHKVYACEVTHQGLSSPVTKSFNRGEC
notes: Bs(scFv)4-IgG format; also called bispecific B-4H6/3H3-hFc** mAb
Regarding B1, the binding result is given as “binds”.
